Residue numbers refer to the chain shown, from its start. Numbers in names are those of the source. Entries after “also recorded” stand apart in the source; their conditions may differ. Peptide text beside a SMILES is read from it. * marks the point of attachment. Boc = CC(C)(C)OC(=O)*; CH2Cl = ClC*

Series [1] addresses fluorogenic peptide substrate DABCYL-Arg-Gly-Val-Val-Asn-Ala-Ser-Ser-Arg-Leu-Ala-EDANS (HCMV).
For series [2], the target named is T1, KSHV protease Pr(S204G), an autolytically stable variant (Human herpesvirus 8 strain GK18, UniProt Q2HRB6, S204G).
T1 construct: S204G, untagged, recombinant in E. coli; source DNA from pulmonary KS tumor clone
T1 sequence (Q2HRB6 1-230 A226V): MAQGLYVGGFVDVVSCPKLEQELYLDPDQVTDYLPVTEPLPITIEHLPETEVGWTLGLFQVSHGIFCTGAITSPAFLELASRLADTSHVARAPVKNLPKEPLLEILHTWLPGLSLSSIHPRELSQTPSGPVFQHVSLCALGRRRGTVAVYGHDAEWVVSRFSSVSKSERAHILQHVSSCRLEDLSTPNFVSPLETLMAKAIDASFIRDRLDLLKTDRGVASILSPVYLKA
Briefly: Fluorometric enzyme assay, inhibition of KSHV protease. The conditions noted are these: 0.5 μM enzyme Pr(S204G), 300 μM inhibitor, 15 min pre-incubation, 20 μM fluorogenic substrate. Type of series: biochemical, Kaposi's Sarcoma Herpesvirus (KSHV).

Series [3] concerns KSHV-infected B-cell line, BCBL-1. In words: Northern blot of KSHV AP and Pr/AP transcripts in BCBL-1 cells. The series is classed as cell-based. Further details: production of 0.95 kb AP transcript / production of 0.95 kb and 2.3 kb transcripts: dose or concentration left out as unconfirmed. The source says: The KSHV-infected B-cell line, BCBL-1, was employed for transcription of the KSHV Pr/AP and AP genes during lytic infection. This cell line harbors the viral genome in latent form, and treatment of these cells with TPA induces lytic replication (Renne, et al., 1996). Equivalent amounts of poly(A)-enriched RNA from uninduced or induced BCBL-1 cells in the presence or absence of phosphoroformic acid (PFA), an inhibitor of herpesviral DNA replication, were separated on a formaldehyde/agarose gel, transferred to a membrane, and hybridized to a probe derived from the 1.5 kb fragment containing the Pr/AP ORF of KSHV, as detailed in Example 6.
BCBL-1 cells (Renne, et al., 1996) were treated with phosphoroformic acid (PFA) at a concentration of 500 mM for at least 3 days prior to induction. Untreated and PFA treated cells were then split into identical flasks, at 3×10^5 cells/ml, and left unstimulated or induced with 12-O-tetradecanoyl phorbol-13-acetate (TPA) at a concentration of 20 ng/ml. After 48 hours, total RNA was harvested using RNAzol B as recommended by the manufacturer (Tel-Test, Friendwood, Tex.). To enrich the polyadenylated RNA fraction, 300 μg RNA samples, uninduced and induced with TPA, and with and without PFA treatment, were affinity purified using the Oligotex mRNA purification system (Qiagen, Chatsworth, Calif.). RNA was separated on a 1% agarose, 17% formaldehyde gel, transferred to Hybond-N nylon membrane in 10× SSC for 5 hours, and UV-crosslinked. The 1.5 kb insert from pBS1.5 was gel purified and labelled using the rediPrime Random Prime kit (Amersham Corporation, Arlington Heights, Ill.). Hybridization was performed as according to standard methods (Renne, et al., 1996), and the blot was exposed to Kodak XAR5 film for 8 hours.

Series [4] has as its system HCMV M-site peptide substrate DABCYL-[…]-EDANS. In words: Continuous fluorometric assay of cleavage of fluorogenic peptide substrate. Type of series: biochemical. The note with it: for increase in fluorescence intensity (F/Fo) from peptide hydrolysis: 1.5 μM enzyme, 10 μM substrate, pH 5.5, 37° C., by five hours; for rate of hydrolysis of HCMV substrate relative to 1.5 μM wild-type KSHV Pr: 1 μM trypsin D102N or 1 nM trypsin vs 1.5 μM KSHV Pr, one-hour time course; for proteolytic activity relative to KSHV Pr: assayed according to the method of Example 5. The protocol: Such activities can be determined by comparing the activity of a KSHV PR, as defined herein, to that of the KSHV Pr having the sequence SEQ ID NO:7. For example, in experiments carried out in support of the present invention, recombinantly produced His6 -KSHV Pr and variant His6 -KSHV Pr(S114A) proteins were tested for ability to cleave a synthetic peptide substrate. The substrate, containing the HCMV M-site peptide sequence RGVVNASSRLA (SEQ ID NO:15) flanked by a fluorogenic donor-acceptor pair, allows for continuous monitoring of peptide hydrolysis due to fluorescence enhancement arising from donor-acceptor separation (Holskin, et al., 1995). This substrate contains an internal Arg residue, allowing for cleavage by trypsin, an extremely well-characterized serine protease.
Protease assays using the fluorogenic peptide substrate DABCYL-Arg-Gly-Val-Val-Asn-Ala-Ser-Ser-Arg-Leu-Ala-EDANS, where RGVVNASSRLA (SEQ ID NO:15) was obtained from BACHEM (King of Prussia, Pa.), were monitored optically by a Perkin-Elmer LS-5B luminescence spectrophotometer interfaced with a Macintosh SE-30 computer. DABCYL represents 4-(4'-Dimethylaminophenylazo)benzoic acid, and EDANS signifies (2'-aminoethylamino)-naphthalene-1-sulfonic acid. His6 -Pr and His6 -Pr(S114A) were diluted 10-fold from storage buffer into assay buffer (50 mM NaOAc (pH 5.5), 20% (v/v) glycerol, 0.1 mM EDTA, 0.1 mM DTT), equilibrated to 37° C. for 5 minutes in thermostatted quartz cuvettes, and manually mixed with a final substrate concentration of 10 μM. A pH 5.5 buffer was utilized due to slightly higher proteolytic activity than that observed in pH 7.5 Tris-based solutions. The final KSHV Pr concentrations were 1.5 μM. Time-evolved fluorescence enhancement was followed by exciting the samples at 355 nm and detecting emission at 495 nm. Trypsin and its D102N variant (Craik, et al., 1987) were diluted into the same assay buffer to final concentrations of 1 nM and 1 μM, respectively, and treated identically to the KSHV enzymes. The ratio of fluorescence at each time point (F) was then compared with the initial fluorescence output (FO) to generate plots of F/FO vs. time.

The target in series [5] is fluorogenic peptide substrate DABCYL-Arg-Gly-Val-Val-Asn-Ala-Ser-Ser-Arg-Leu-Ala-EDANS (HCMV). This is another data set of the same source.

With KSHV His6-Pr (enzyme), the fluorescence enhancement (F/Fo) from hydrolysis of the fluorogenic peptide (fold increase in fluorescence intensity) in series [1] amounted to 3.
Consider `CC(C)C[C@H](NC(=O)[C@H](Cc1ccc(O)cc1)NC(=O)OC(C)(C)C)C(=O)N[C@@H](CCCCN)C(=O)N[C@@H](C)C(=O)CCl` [Boc-YLKA-COCH2 Cl] (Boc-YLKA-CH2Cl), for which the “inhibition of protease activity” value in series [2] was “Complete inhibition”.
In the case of `CCCCCCCCCCCCCC(=O)O[C@@H]1[C@@H](C)[C@@]2(O)[C@@H](C=C(CO)C[C@]3(O)C(=O)C(C)=C[C@@H]23)[C@@H]2C(C)(C)[C@]12OC(C)=O` [TPA, 12-O-tetradecanoyl phorbol-13-acetate], the “production of 0.95 kb AP transcript upon lytic induction” value in series [3] (BCBL-1 cells, TPA 20 ng/ml, 48 hours) is listed as “strongly upregulated”.
In the case of “KSHV Pr: recombinant KSHV protease (SEQ ID NO:7) with amino-terminal His6 tag, expressed in E. coli”, the “increase in fluorescence intensity (F/Fo) from peptide hydrolysis” value in series [4] was “nearly three-fold increase”.
As for “trypsin D102N (from UniProt P00763) (enzyme)”, in series [5], the fluorescence enhancement (F/Fo) from hydrolysis of the fluorogenic peptide (fold faster than KSHV Pr) amounted to 2.
Take `O=C(O)P(=O)(O)O` [PFA, phosphoroformic acid]: in series [3] (TPA-induced BCBL-1 cells), the “production of 0.95 kb and 2.3 kb transcripts” value is “strongly inhibited”. Besides, the “production of 0.95 kb AP transcript” value in series [3] (uninduced BCBL-1 cells) is given as “strongly inhibited”.

B1: trypsin D102N: trypsin in which the active site Asp residue has been replaced with Asn (protein)
chain: IVGGYTCQENSVPYQVSLNSGYHFCGGSLINDQWVVSAAHCYKSRIQVRLGEHNINVLEGNEQFVNAAKIIKHPNFDRKTLNNDIMLIKLSSPVKLNARVATVALPSSCAPAGTQCLISGWGNTLSSGVNEPDLLQCLDAPLLPQADCEASYPGKITDNMVCVGFLEGGKDSCQGDSGGPVVCNGELQGIVSWGYGCALPDNPGVYTKVCNYVDWIQDTIAAN
For the molecule B1, the “rate of hydrolysis of HCMV substrate relative to 1.5 μM wild-type KSHV Pr” value in series [4] is 2 fold. Also, in series [4] (under the conditions used herein), the “catalytic efficiency relative to trypsin” value is reported as “roughly 5000 fold”.

B2: trypsin: extremely well-characterized serine protease used for comparison (protein)
chain: B1 chain
Consider B2, for which the “rate of hydrolysis of HCMV substrate relative to 1.5 μM wild-type KSHV Pr” value in series [4] is given as “substantially more active than the KSHV enzyme”.

B3: Pr(S204G): KSHV protease variant engineered to stabilize the enzyme against autoproteolysis, expressed without His6 tag (protein)
chain: T1 sequence (Q2HRB6 1-230 A226V) with S204G
For B3, in series [4], the “proteolytic activity relative to KSHV Pr” value is “essentially the same activity as Pr; also recorded: substantially the same activity as Pr”.

B4: S114A variant: KSHV protease variant in which the active-site Ser-114 was converted to Ala (protein)
chain (part 1 of 2): MRGS
chain (part 2 of 2): GSAQGLYVGGFVDVVSCPKLEQELYLDPDQVTDYLPVTEPLPITIEHLPETEVGWTLGLFQVSHGIFCTGAITSPAFLELASRLADTSHVARAPVKNLPKEPLLEILHTWLPGLALSSIHPRELSQTPSGPVFQHVSLCALGRRRGTVAVYGHDAEWVVSRFSSVSKSERAHILQHVSSCRLEDLSTPNFVSPLETLMAKAIDASFIRDRLDLLKTDRGVASILSPVYLKA
Consider B4, for which, in series [4], the “increase in fluorescence intensity (F/Fo) from peptide hydrolysis” value is reported as “minimal enhancement” and the “proteolytic activity relative to KSHV Pr” value was 1/10.
